{"source": "patent US20040009147A1", "about": "(Human Genome Sciences, published 2004)", "biological_target": "T1, mouse AIM II (LIGHT), membrane-bound (mouse, UniProt Q9QYH9 1-239)", "T1 construct": "whole, on cells; On human 293 cells transfected with pmAIM II (flow cytometry); also called mAIM II; pmAIM II-transfected 293 cells", "T1 sequence (looked up)": "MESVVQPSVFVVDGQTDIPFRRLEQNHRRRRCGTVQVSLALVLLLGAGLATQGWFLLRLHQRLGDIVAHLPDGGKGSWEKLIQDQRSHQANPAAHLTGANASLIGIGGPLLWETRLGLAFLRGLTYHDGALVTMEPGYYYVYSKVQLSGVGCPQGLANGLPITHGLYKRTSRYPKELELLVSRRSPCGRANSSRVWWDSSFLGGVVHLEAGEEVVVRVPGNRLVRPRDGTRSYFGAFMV", "test": "flow cytometry, mouse LTβR-Ig (1 µg in 50 µl) on 293 cells transfected with pmAIM II, FITC goat anti-human IgG", "experimental": "Flow cytometric analysis. Human 293 cells (1×10⁶ cells) were transfected with either mouse AIM II pcDNA3 vector (10μg) or mock vector (10 μg) by calcium phosphate methods. After 30 hr of transfection, 293 cells were harvested and stained with 1 μg of mouse LTβR-Ig or the anti-AIM II antibody in 50 μl of PBS supplemented with 5% FBS and 0.02% azide for 30 min at 4° C. The cells were then washed and further incubated with FITC-conjugated anti-human IgG or anti-rabbit IgG for 30 min at 4° C., respectively. Fluorescence was analyzed by a FACSCalibur flow cytometry (Becton Dickinson, Mountain View, Calif.) with Cell Quest software (Becton Dickinson)."}
{"binder": "mouse LTβR-Ig fusion protein (mouse LTβR extracellular domain fused to the Fc portion of human IgG1) (Fc fusion, UniProt P50284 31-223, looked up, extracellular domain; Made in BHK/VP16 cells, purified on Protein A; not shown: Fc portion of human IgG1 (vector pX58)) QLVPPYRIENQTCWDQDKEYYEPMHDVCCSRCPPGEFVFAVCSRSQDTVCKTCPHNSYNEHWNHLSTCQLCRPCDIVLGFEEVAPCTSDRKAECRCQPGMSCVYLDNECVHCEEERLVLCQPGTEAEVTDEIMDTDVNCVPCKPGHFQNTSSPRARCQPHTRCEIQGLVEAAPGTSYSDTICKNPPEPGAMLL", "values": [{"measurement": "binding result", "result": "binds"}]}
